B1: EVA‐ACA1001 (untagged, for crystallization and cell assays) (natural protein)
chain: ENGEGTTQPDYDNSTDYYNYEDFKCTCPAPHLNNTNGTVMKPIGCYYTCNVTRCTAPDTYPCYNLTEHQAKNLTTSPTTLCAVGNCDHGICVPNGTKELCFKAPNLEE
B2: CCL8 (ligand, human, UniProt P80075 24-99, looked up)
chain: QPDSVSIPITCCFNVINRKIPIQRLESYTRITNIQCPKEAVIFKTKRGKEVCADPKERWVRDSMKHLDQIFQNLKP
notes: CCL8, human CC chemokine
B3: CCL3 (ligand, human, UniProt P10147 24-92, looked up)
chain: SLAADTPTACCFSYTSRQIPQNFIADYFETSSQCSKPGVIFLTKRSRQVCADPSEEWVQKYVSDLELSA
notes: CCL3, human CC chemokine
B4: CCL4 (ligand, human, UniProt P13236 24-92, looked up)
chain: APMGSDPPTACCFSYTARKLPRNFVVDYYETSSLCSQPAVVFQTKRSKQVCADPSESWVQEYVYDLELN
notes: CCL4, human CC chemokine
B5: CCL21 (ligand, human, UniProt O00585 24-134, looked up)
chain: SDGGAQDCCLKYSQRKIPAKVVRSYRKQEPSLGCSIPAILFLPRKRSQAELCADPKELWVQQLMQHLDKTPSPQKPAQGCRKDRGASKTGKKGKGSKGCKRTERSQTPKGP
notes: CCL21, human CC chemokine
B6: EVA‐ACA1001, Avi-tagged and biotinylated (SPR construct) (natural protein)
chain: ENGEGTTQPDYDNSTDYYNYEDFKCTCPAPHLNNTNGTVMKPIGCYYTCNVTRCTAPDTYPCYNLTEHQAKNLTTSPTTLCAVGNCDHGICVPNGTKELCFKAPNLEE
modifications: biotin on the AVI tag (BirA ligase)
notes: EVA-ACA1001 (Evasin P991), class A3 evasin of Amblyomma cajennense; mass of the untagged protein 11,920 Da (calculated 11,921 Da with five disulfides); also called Evasin P991; full‐length EVA‐ACA1001; not shown: His6, N-terminal, cleaved; SUMO, N-terminal, cleaved

molecular target: B1; assay: crystal structure; EVA-ACA1001 and CCL16 mixed 1:1.2, complex purified on Superdex 75 in 10 mM HEPES pH 7.5, 150 mM NaCl; crystals from 0.1 M HEPES pH 7.0, 0.5% v/v Jeff ED-2001, 1.1 M sodium malonate; two complexes per asymmetric unit; settings: both partners purified

Binder | stoichiometry N
CCL16 (ligand, human, UniProt O15467 24-120, looked up, CCL16, human CC chemokine; The E. coli preparation is described for the crystal; also called human chemokine CCL16; not shown: His6, N-terminal, cleaved; SUMO, N-terminal, cleaved) QPKVPEWVNTPSTCCLKYYEKVLPRRLVVGYRKALNCHLPAIIFVTKRNREVCTNPNDDWVQEYIKDPNLPLLPTRNLSTVKIITAKNGQPQLLNSQ | 1

molecular target: B2; assay: cell-based or functional assay; settings: not given

Binder | IC50 of EVA-ACA1001 for inhibition of CCL8-stimulated activation of CCR5 (cAMP assay); blocks CCL8 with CCR5 [nM]
B1 | ~189

molecular target: B6; assay: SPR; screen at a single chemokine concentration: biotinylated Avi-tagged evasin immobilised on a streptavidin-coated CAPture chip (80 response units); 500 nM chemokine flowed for 240 s at 30 uL/min, 600 s dissociation; 25°C; Biacore T100; 10 mM HEPES, 500 mM NaCl, 0.002% Tween 20, 3 mM EDTA, 1 mg/mL carboxymethyl dextran, pH 7.5; settings: both partners purified

Binder | binding result
CCL7 (ligand, CCL7, human CC chemokine) not shown | binds
CCL18 (ligand, human, UniProt P55774 21-89, looked up, CCL18, human CC chemokine) AQVGTNKELCCLVYTSWQIPQKFIVDYSETSPQCPKPGVILLTKRGRQICADPNKKWVQKYISDLKLNA | binds

molecular target: B2; assay: cell-based or functional assay; settings: not given; remark: another data set of the same source

Binder | IC50 of EVA-ACA1001 for inhibition of CCL8 (100 nM)-stimulated activation of CCR5 (inhibition of forskolin-induced cAMP, CAMYEL BRET biosensor, Flp-In-CHO cells); blocks CCL8 with CCR5 [nM] | pIC50 of EVA-ACA1001 for inhibition of CCL8 (100 nM)-stimulated activation of CCR5 (inhibition of forskolin-induced cAMP, CAMYEL BRET biosensor, Flp-In-CHO cells); blocks CCL8 with CCR5
B1 | 188 | 6.51 -log(IC50, M)

molecular target: B3; assay: cell-based or functional assay; settings: not given

Binder | IC50 of EVA-ACA1001 for inhibition of CCL3 (60 nM)-stimulated activation of CCR5 (inhibition of forskolin-induced cAMP, CAMYEL BRET biosensor, Flp-In-CHO cells); blocks CCL3 with CCR5 [nM] | pIC50 of EVA-ACA1001 for inhibition of CCL3 (60 nM)-stimulated activation of CCR5 (inhibition of forskolin-induced cAMP, CAMYEL BRET biosensor, Flp-In-CHO cells); blocks CCL3 with CCR5
B1 | 94 | 7.02 -log(IC50, M)

molecular target: B4; assay: cell-based or functional assay; settings: not given

Binder | IC50 of EVA-ACA1001 for inhibition of CCL4 (80 nM)-stimulated activation of CCR5 (inhibition of forskolin-induced cAMP, CAMYEL BRET biosensor, Flp-In-CHO cells); blocks CCL4 with CCR5 [nM] | pIC50 of EVA-ACA1001 for inhibition of CCL4 (80 nM)-stimulated activation of CCR5 (inhibition of forskolin-induced cAMP, CAMYEL BRET biosensor, Flp-In-CHO cells); blocks CCL4 with CCR5
B1 | 84 | 7.07 -log(IC50, M)

molecular target: B6; assay: SPR; affinity determination: biotinylated Avi-tagged evasin immobilised on a streptavidin-coated CAPture chip; five two-fold increasing chemokine concentrations (31.25-500 nM), 240 s at 30 uL/min, 600 s dissociation; 1:1 binding model; 25°C; 10 mM HEPES, 500 mM NaCl, 0.002% Tween 20, 3 mM EDTA, 1 mg/mL carboxymethyl dextran, pH 7.5; three independent experiments (Table 1 caption: multiple-cycle kinetics); settings: both partners purified

Binder | Kd [nM] | pKd
B2 | 4.76 | 8.34 -log(Kd, M)
CCL22 (ligand, human, UniProt O00626 25-93, looked up, CCL22, human CC chemokine) GPYGANMEDSVCCRDYVRYRLPLRVVKHFYWTSDSCPRPGVVLLTFRDKEICADPRVPWVKMILNKLSQ | 1.29 | 8.9 -log(Kd, M)
CCL5 (ligand, human, UniProt P13501 24-91, looked up, CCL5, human CC chemokine) SPYSSDTTPCCFAYIARPLPRAHIKEYFYTSGKCSNPAVVFVTRKNRQVCANPEKKWVREYINSLEMS | 0.27 | 9.55 -log(Kd, M)
CCL15 (ligand) QFTNDAETELMMSKLPLENPVVLNSFHFAADCCTSYISQSIPCSLMKSYFETSSECSKPGVIFLTKKGRQVCAKPSGPGVQDCMKKLKPYSI | 107 | 7.02 -log(Kd, M)
CCL27 (ligand, human, UniProt Q9Y4X3 25-112, looked up, CCL27, human CC chemokine) FLLPPSTACCTQLYRKPLSDKLLRKVIQVELQEADGDCHLQAFVLHLAQRSICIHPQNPSLSQWFEHQERKLHGTLPKLNFGMLRKMG | 84.8 | 7.07 -log(Kd, M)
CCL17 (ligand, human, UniProt Q92583 24-94, looked up, CCL17, human CC chemokine) ARGTNVGRECCLEYFKGAIPLRKLKTWYQTSEDCSRDAIVFVTVQGRAICSDPNNKRVKNAVKYLQSLERS | 1.01 | 8.99 -log(Kd, M)
CCL26 (ligand, human, UniProt Q9Y258 24-94, looked up, CCL26, human CC chemokine) TRGSDISKTCCFQYSHKPLPWTWVRSYEFTSNSCSQRAVIFTTKRGKKVCTHPRKKWVQKYISLLKTPKQL | 1.68 | 8.77 -log(Kd, M)
CCL24 (ligand, human, UniProt O00175 27-119, looked up, CCL24, human CC chemokine) VVIPSPCCMFFVSKRIPENRVVSYQLSSRSTCLKAGVIFTTKKGQQFCGDPKQEWVQRYMKNLDAKQKKASPRARAVAVKGPVQRYPGNQTTC | 8.9 | 8.22 -log(Kd, M)
CCL11 (ligand, CCL11, human CC chemokine) not shown | 0.38 | 9.49 -log(Kd, M)
CCL19 (ligand, human, UniProt Q99731 22-98, looked up, CCL19, human CC chemokine) GTNDAEDCCLSVTQKPIPGYIVRNFHYLLIKDGCRVPAVVFTTLRGRQLCAPPDQPWVERIIQRLQRTSAKMKRRSS | 1.31 | 8.9 -log(Kd, M)
B3 | 1.08 | 8.99 -log(Kd, M)
CCL1 (ligand, human, UniProt P22362 24-96, looked up, CCL1, human CC chemokine) KSMQVPFSRCCFSFAEQEIPLRAILCYRNTSSICSNEGLIFKLKRGKEACALDTVGWVQRHRKMLRHCPSKRK | 21.1 | 7.71 -log(Kd, M)
B4 | 1.18 | 8.93 -log(Kd, M)
CCL13 (ligand, CCL13, human CC chemokine) not shown | 0.39 | 9.41 -log(Kd, M)
B5 |  | 8.19 -log(Kd, M)
CCL16 (ligand, human, UniProt O15467 24-120, looked up, CCL16, human CC chemokine; The E. coli preparation is described for the crystal; also called human chemokine CCL16; not shown: His6, N-terminal, cleaved; SUMO, N-terminal, cleaved) QPKVPEWVNTPSTCCLKYYEKVLPRRLVVGYRKALNCHLPAIIFVTKRNREVCTNPNDDWVQEYIKDPNLPLLPTRNLSTVKIITAKNGQPQLLNSQ | 0.54 | 9.34 -log(Kd, M)
CCL23 (ligand) RVTKDAETEFMMSKLPLENPVLLDRFHATSADCCISYTPRSIPCSLLESYFETNSECSKPGVIFLTKKGRRFCANPSDKQVQVCMRMLKLDTRIKTRKN | 1.17 | 8.93 -log(Kd, M)

molecular target: B5; assay: as above; settings: both partners purified

Binder | Kd [nM]
B6 | 6.5
